Reference: the nanobody polyreactivity screen of Harvey et al. (2022)

test: yeast display, Sf9 membrane polyspecificity reagent, FACS + sequencing; frameworks hold sequencing errors
How it was run: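 After 36–48 hours of galactose induction, yeast (Saccharomyces cerevisiae BJ5465) displaying a synthetic nanobody library were stained at 4 °C for 1 hour with 10% biotinylated, detergent-solubilized Sf9 membrane reagent. Streptavidin microbeads enriched the stained cells before FACS sorting into low and high (top ~1%) gates on anti-HA and streptavidin fluorescence. Each clone's polyreactivity label reflects its gate of origin.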

Row | Sequence | polyreactivity (PSR sort gate)
1 | QVQLVESGGGLVQAGGSLRLSCAASGRILEYNAMGWYRQAPGKERELVAAITSDGSTNYADSVKGRFTISRDNAKNTVYLQMNSLKPEDTAVYYCNTRYSLYTKYAYYDELDYWGQGTQVTLSS | low polyreactivity
2 | QVQLVESGGGLVQAGGSLRLSCAASGSIFWSYAMGWYRQAPGKERELVASISRSTGRTRYADSVKGRFTISRDNAKNTVYLQMNSLKPEDTAVYYCAATRRAGFTTAKFDYWGQGTQVTVSS | high polyreactivity
3 | QVQLVESGGGLVQAGGSLRLSCAASGGTVTYNAMGWYRQAPGKERELVAAITNGGGSTYYADSVKGRFTISRDYAKNTVYLQMNSLKPEDTAVYYCAARWWYYYTEYDYWGQGTQVTVSS | low polyreactivity
4 | QVQLVESGGGLVQAGGSLRLSCAASGSTFTYNAMGWYRQAPGKERELVAAITGRGGSTYADSVKGRFTISRDNAKNTVYLQMNSLKPEDTAVYYCAARRPYGYRWHTSVPSLDYWGQGTQVTVSS | low polyreactivity
5 | QVQLVESGGGLVQAGGSLRLSCAASGLIFRYYSMAWYRQAPGKERELVAAISKSGDRTYYADSVKGRFTISRDNAKNTVYLEMNSLKPEATGVYYCAADSYPSPNFEDNYWGQGTQVTVSS | low polyreactivity
6 | QVQLVESGGGLFHAGGSLRLSCAASGSTFTDDDMGWYRQAPGKERELVAAMSWSGGSTYYADSVKGRFTISRDNAKNTVYLQMNSLKPDDTADYYCAFRYHGYDYWGQGTQVTVSS | high polyreactivity
7 | QVQLVESGGGLVQAGGSLRLSCAASGSTFLPYAMGWYRQAPGKERELVAAITWRTGSTYYADSVKGRFTISRDNAKNTVYLQMNSLKPEDTAVYYCNAKQRGKFDYWGQGTQVTVSS | low polyreactivity
8 | QVQLVESGGRLVQAGGSLRFTCAASGSIFYSYAMGWYRQAPGKERELLAAINYSGSSTYYADSVKGRFTISRDNAKNTVYLQMNSLKPEDTAVYYCAAVIHSQYVDYYYWGQGTQVTVSS | high polyreactivity
9 | QVQLVESGGGLVQAGGSLRLSCAASGRIFPANAMGWYRQAPWKERELVAAISSTGGSTYYADSVKGRFTISRDNAKNSVYLQMKSLKPEDTAVYYCAKVHYRWPRVTWPNVWWSFEYWGQGTQVSVSS | low polyreactivity
10 | QVQLVESGGGLVQAGGSLRLSCAASGRTFNTYAMGWYRQAPGKEREFVAAIRYSGDRTNYADSVKGRFTISRDNAKNTVYLQMNSLKPEDTAVYYCAAVNYFPWWSFEYWGQGTQVTVSS | low polyreactivity
11 | QVQLVESGGGLVQAGGSLRLRCAASGSTLYGNAMGWYRQAPGKERDLVAVISRGGTTSYADSVKGRFTISRDNAKNTVYLQMKSLKPEDTAVYYCAVDVASLSTWPPAGRLVDYWGQGTQVTVSS | low polyreactivity
12 | QVQLVESGGGLVQAGGSLRLSCAASGSNFPLNPMGWYRPSPGKERELVAAISSSTGSTSYADSVKGRFTISRDNAKNTVYLQMNSLKPEDTAVYYCAAETPYIVDYWGQGTQVTVSS | high polyreactivity
13 | QVHLVESGGGLVQAGGSLRLSCAASGRIFRRYAMGWSRQAPGKERELVAAISSGGSTYYADSVKGRFTISRDNAKNTVYLQMNSLKPEDTAVYYCNAKVGAYLNYGYWGQGTQVTVSS | low polyreactivity
14 | QVQLVESGGGLVQAGGSLRLSCAASGLIFRRYAMGWYRQAPGKERELVAAITIGGSTSYADSVKGRFTISRDNAKNTVYLQMNSLKPEDTAVYYCAARWGALWYRPYDYWGQGTQVTVSS | high polyreactivity
15 | QVQLVESGGGLVQAGGSLRLSCAASGITFGIYAMGWDRQAPGKERELVAAISLSGGSTYYADSVKGRFTISRDNAKNTVYLQMNSVKPEDTAVYYCNARRNRYGEYYWGQGTQVTVSS | high polyreactivity
16 | QVQLVESGGGLVQAGGSLRLSCAASGFIFTTYDMGWYRQAPGKEMELVAAITGSGGRTYYADSVKGRFTISRDNAKNTVYLQMNSLKPEDTAVYYCAARWGNVRFRYGYWGQGTQVTVSS | high polyreactivity
17 | QVQLVESGGGLVQAGGSLRLSCAASGFTFSSNGMGWYRQAPGKERELVAAITRRGGSTYYADSVKGRFTISRDNAKNTVYLQMNSLKPEDTAVYYCAARRSGTYYGTYKSNGRNYWGQGTQVTVSS | high polyreactivity
18 | QVQLVESGGGLVQAGGSLRLSCAASGRTFTHYAMGWYRQAPGKERELVAAISRSGGTTYYADSVKGRFTISRDNAKNTVYLQMNSLKPEDTAVYYCAARWWYRYNYDYWGQGTQVTVSS | high polyreactivity
19 | QVQRVESAGGLVQAGGSLRLSCAASGRTFSGNARGWYRPAPGKERELVAGISTTGGSTYYADSVKGRFTISRDNAKNTVYLEMNSLKPADTAVYYCAAYSASNGGYDYWGQGTQVTVSS | high polyreactivity
20 | QVQLEESGGGLVQAGGSLRLSCAASGGILDTYAMGWYRPAPWKETELVAANTSGCNTNYADSVKGRFTISRDNAKNTVYLQMISLKQEDTEVYYCNLVTWYYVFRPWEYDYCGQGTQVTVSS | low polyreactivity
21 | QVQLVESGGGLVQAGGSLRLSCAASGGIFYRYAMGWYRQAPGKERELVAAITRSGANTYYADSVKGRFTISRDNAKNTVYLLMNSLKPEDTAVYYCNARSYLYYSGQYDYWGQGTQVTVSS | high polyreactivity
22 | QVQLVESGGGLVQAGGSLRLSCAASGRIFWTNAMGWYRQAPGKERELVAAISYRGGRTYYADSVKGRFTISRDNAKNTVYLQMNSLKPEDTAVYYCAAFTAQGPKYDYWGQGTQVTVSS | high polyreactivity

Row | Sequence | polyreactivity (PSR sort gate)
23 | QVQLVESGGGLVQAGGSLRLSCAASGSIFRSYAMGWYRQSPGKERELVASISRRGGSTYYADSVKGRFTISRDNAKNTVYLQMNSLKPEDTAVYYCAAVRYNSRVSTTPSDMYYWGQGTQVTVSS | low polyreactivity
24 | QVQLVESGGGLVQAGGSLRLSCAASGSTFRRNAMGWYRQAPGKEREFVAAISSRGGSTYYADSVKGRFTISRDNAKNTVYLQMNSLKPEDTAVYYCAADKASRHSNPFYYWGQGTQVTVSS | high polyreactivity
25 | QVQLVESGGGVVQAGGSLRLSCAASGSTFYPYAMGWYRPAPVKERELVASISSRGGTTYYADSEKGRFTISRDNAKNTVYLQRNSLKPEDTAVYYCAATYKHLNPLGVFSGGYYYWGQGTQVTVSS | high polyreactivity
26 | QVQLVESGGGLVQAGGSLRLSCAASGSTLYGYAMGWYRQAPGKERELVAAISSSGTRTYYADSVKGRFTISRDNAKNSVYLQMNSLKPEDTAVYYCNAYYYIPFEGRGYSKMDYWGQGTQVTVSS | high polyreactivity
27 | QVQLVESGGGLVQAGGSLRLSCAASGFIFDYNAMGWYRQAPGKERELVAAISWSGSRTYYAVSVKGRFTISRDNAKNTVYLQMNSLKPEDTAVYYCAAEWSGEAAWQVGAEDDYWGQGTQVTVSS | low polyreactivity
28 | QVQLVESGGGLVQAGGSLRLSCAASGITFAFYDMGWYRQAPGKERELVAAISYSGGGTYYADSVKGRFTISRDNAKNTVYLQMNSLKPEDTAVYYCAADPKTHPLFGEDYWGQGTQVTVSS | low polyreactivity
29 | QVQLVESGGGLVQAGGSLRLSCAASGRTFEIYAMGWYRHAPGKERELVAAISSSGGSTYYADSVKGRFTISRDNAKNTVYLQMNSLKPEDTAVYYCAARYRATLTRTRVGYWGQGTQLTVSS | high polyreactivity
30 | QVLLVESGGGLVQAGGSLRLSCASSGNTFYVNVMGWYRQAPGKEREFVAAISTRGVSTSYADSVKGRYTISRDNAKNTVYLDMNTLKPEDTAVYYCAASFRRPQPKGTTYGYWGQGTQVTVSS | high polyreactivity
31 | QVQLVESGGGLVQAGGSIRLSCAASGITFYVYTLGWYRQAAGKERELVAAINGSGGSTNYADSVKGRFTITRDNEKNTVYLQMNSLKREDTAVYYCNAPVVYFWPLNFDYWGQGTQVTVSS | low polyreactivity
32 | QVQLVESGGGLVQAGGSLRLSCAASGRILSTYAMGWYRQAPGKERELVAVISWTGGRTYYADSVKGRFTISRYNAKNTVYLQMNSLKPEDTAVYYCNARPYYGGTRGRQYEYGYWGQGSQVTVSS | high polyreactivity
33 | QVQLVESGGGLVQAGGSLRLSCAASGSIFVRNAMGWYRQAPGKERELVATITRRGGRTYYADSVKGRFTISRDNAKNTVYLQMNSLKPEDTAVYYCAARVRTATRRFTSYYWGQGTQVTVSS | high polyreactivity
34 | QVQLVESGGGLVQAGGSLRLSCAASGGTFLNYAMGWYRQAPGKERELVAVITNGDSTYYADSVKGRFTISRDNAKNSVYLQMNSLKPEDTAVYYCNADDWGQYNIWYDYWGQGTQVTVSS | low polyreactivity
35 | QVQLVESGGGLVQAGGSLRLSCAASGFTFPYYAMGWYRQAPGKERELVAAISRNGGSTYYADSVKGRFTISRDNAKNTVYLQMNSLKPEDTAVYYCAARYRYWGGSGFKGFDYWGQGTQVTVSS | high polyreactivity
36 | QVQLVESGGGLVQAGGSLRLICAASGSIFYFYAMGWYREAPGKERELVAAIRYNGGSTYYADSVKGRFTISRDNAKNTVYLQMNSLKPEDTAVYYCAAGGFHYVYYRGMYYWGQGTQVTVSS | high polyreactivity
37 | QVQLVESGGGLVQAGGSLRLSCAASGSTFVYNAMGWYRQAPGKERELVAGISSSGGRTYYADSVKGRFTISRDNAKNTVYLQMNSLKPEDTAVYYCATGYRQGEYDYWGQGTQVTVSS | low polyreactivity
38 | QVQLVESGGGLVQAGGSLRLSCAASGSTFGKNAMGWYRQAPGKERELVAAISRSGGRTYYADSVKGRFTISRDNAKNTVYLQMNSLKPEDPAVYYCAREWYTAGSGDYWGQGTQVTVSS | low polyreactivity
39 | QVQLVESGGGLVQAGGSLRLSCAASARTFRQYAMGWYRQSPGKERELVAAIRTNGGRTYYADSVKGRFTISRDNAKNTVYLQMNSLKPEDTAVYYCAVRPRPGYYYWGQGTQVTVSS | high polyreactivity
40 | QVQLVESGGGLVQAGGSLRLSCAASGRIFPWYAMGWYRQAPGRVREFLAVISRSGGSTYYADSVKGRFTISRDNAKNTVYLQMNSLKPEDTAVYYCAADGKFEYDYWGQGTQVTVSS | low polyreactivity
41 | QVHLVESGGGLVQAGGSLRLSCAASGRTFWSYAMGWYRQAPGKERELVAAISWRSGTTYYADSVKGRFTISRDNAKNTVYLQMNSLKPEDTAVYYCNAHSNYRGDYWGQGTQVTVSS | high polyreactivity
42 | QVQLVESGGGLVQAGGSLRLSCAASGLIFLYYAMGWYRQAPGKERELVAAISRRGGSTYYADSVKGRFTISRDNAKNTVYLQMNSLKPEDTAVYYCAAKYESYPGGIWTYYYWGQGTQVTVSS | high polyreactivity
43 | QVHLVESGGGLVQAGGSLRLSCAASGRIFSGYAMGWYRQAPGKERELVAAITSGASTNYADSVNGRFTISRDNPKITVYLQLNSLKPVVTAFYYCAATFHSWRGQYLWYDYWGQGTQVTVSS | low polyreactivity
